Measured values reported in patent US20220259278A1 (PROGEN, published 2022).

T1: human CD154 (human, UniProt P29965 113-261, limits assumed)
T1 construct: Coupled to amine reactive (AR2G) biosensors at 5 ug/ml; also called hCD154; CD40L
T1 sequence (looked up): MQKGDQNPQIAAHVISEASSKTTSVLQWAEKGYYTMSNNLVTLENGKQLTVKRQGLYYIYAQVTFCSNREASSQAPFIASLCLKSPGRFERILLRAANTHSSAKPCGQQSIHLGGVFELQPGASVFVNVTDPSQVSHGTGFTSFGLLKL


Key:
human CD154 = biological target: T1, human CD154; test: BLI (Octet K2), CD154 amine-coupled to AR2G sensor, antibody in solution; average
Experimental: To this end, the present inventors first attached CD154 protein to 96-well plates using Dip and Read™ Amine Reactive 2nd Generation (AR2G) Reagent Kit (forteBio, Cat No. 18-5092). Specifically, after dispensing 200 μl of DW in a 96-well plate, an amine biosensor included in the kit was inserted and hydrated for 10 minutes. Subsequently, after dispensing 200 μl of DW was additionally to the plate, EDC:NHS was mixed in a 1:1 ratio in a volume corresponding to 1/20 of the required sample, then diluted in DW, and 200 μl was dispensed into the 96-well plate. Subsequently, CD154 protein was diluted to 5 μg/ml in 10 mM acetate solution (pH 6.0), and 200 μl was dispensed into the 96-well plate. Then, 200 μl of 1 M ethanolamine was added to the 96-well plate, and the biosensor plate and the sample plate were inserted into Octet® K2 BLI analyzer and signals were measured. After the measurement was completed, 200 μl of the 1× Kinetics buffer was added to the sample plate, and then a baseline was determined.

Fc gamma receptor I = biological target: T2, Fc gamma receptor I (UniProt P12314 16-288, limits assumed); test: BLI, fitting view, three repeats
T2 construct: also called FcγRI
T2 sequence (P12314 16-288 limits assumed): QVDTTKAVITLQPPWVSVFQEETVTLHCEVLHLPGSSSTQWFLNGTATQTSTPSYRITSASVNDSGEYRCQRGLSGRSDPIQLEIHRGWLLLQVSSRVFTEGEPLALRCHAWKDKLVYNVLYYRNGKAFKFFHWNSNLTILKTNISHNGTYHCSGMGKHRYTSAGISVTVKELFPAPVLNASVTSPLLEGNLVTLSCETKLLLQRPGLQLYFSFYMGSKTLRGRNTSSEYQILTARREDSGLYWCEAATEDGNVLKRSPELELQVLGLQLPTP

Fc gamma receptor IIIa = biological target: T3, Fc gamma receptor IIIa (UniProt P08637 17-208); test: BLI, fitting view, three repeats
T3 construct: also called FcγRIIIa
T3 sequence (P08637 17-208 limits assumed): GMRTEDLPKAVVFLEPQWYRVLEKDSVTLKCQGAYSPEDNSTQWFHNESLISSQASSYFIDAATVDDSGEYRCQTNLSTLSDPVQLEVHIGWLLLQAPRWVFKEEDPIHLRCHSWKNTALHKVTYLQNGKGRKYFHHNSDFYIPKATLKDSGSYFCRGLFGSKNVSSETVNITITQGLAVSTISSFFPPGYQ

Row | Binder | koff (human CD154) [s⁻¹] | kon (human CD154) [M⁻¹ s⁻¹] | binding result (Fc gamma receptor I) | binding result (Fc gamma receptor IIIa)
1 | chimeric anti-CD154 antibody C10M (antibody, V domains shown, not shown: a dimerising Fc or GST, Mouse-derived anti-CD154 Fab with a mutant human IgG1 Fc region; also called anti-CD154 chimeric antibody) VH: EVQLQQSGSELVKPGASVKLSCKASGYIFTSYYMYWVKQRPGQGLEWIGEINPSNGDTNFNEKFKSKATLTVDKSSSTAYMQLISLTSEDSAVYYCTRSDGRNDMDSWGQGTTVTVSS VL: DIQLTQSPASLAVSLGQRATISCRASQRVSSSTYSYMHWYQQKPGQPPKLLIKYASNLESGVPARFSGSGSGTDFTLNIHPVEEEDSATYYCQHSWEIPPTFGGGTKLEIKR | < 1e-07 | 510000 | – | –
2 | chimeric hybrid antibody PG-400-1 (antibody, V domains shown) VH: EVQLQQSGSELVKPGASVKLSCKASGYIFTSYYMYWVKQRPGQGLEWIGEINPSNGDTNFNEKFKSKATLTVDKSSSTAYMQLISLTSEDSAVYYCTRSDGRNDMDSWGQGTTVTVSS VL: DIQLTQSPASLAVSLGQRATISCRASQRVSSSTYSYMHWYQQKPGQPPKLLIKYASNLESGVPARFSGSGSGTDFTLNIHPVEEEDSATYYCQHSWEIPPTFGGGTKLEIKR | < 1e-07 | 807000 | – | –
3 | GLP-1E-Fc fusion protein PG-11 (Fc fusion, 6 entered; also called modified Fc region protein; fusion protein containing NTIG) HGEGTFTSDVSSYLEGQAAKEFIAWLVKGGPSSGAPPPSGGGGSGGGGSGGGGSEKEKEEQEERTHTCPPCPSHTQPLGVFLFPPKPKDQLMISRTPEVTCVVVDVSQEDPEVQFNWYVDGVEVHNAKTKPREEQFNSTYRVVSVLTVLHQDWLNGKEYKCKVSNKGLPSSIEKTISKAKGQPREPQVYTLPPSQEEMTKNQVSLTCLVKGFYPSDIAVEWESNGQPENNYKTTPPVLDSDGSFFLYSRLTVDKSRWQEGNVFSCSVLHEALHNHYTQKSLSLSLGK | – | – | no binding | no binding
